Columns and labels:
[1] = target: T1, hErbB2-MMH (human HER2 ectodomain with C-terminal myc-myc-hexahistidine tag) (human, UniProt P04626 23-652); test: SPR (MASS-2), ADC captured on anti-human Fc, hErbB2-MMH in solution, 25 C
T1 construct: also called Her2 ECD; Her2 protein
Method: (§1) Equilibrium dissociation constants (KD values) for hErbB2.mmh binding to anti-HER2×HER2 antibodies conjugated with either M830 or M1 were determined using a real-time surface plasmon resonance biosensor assay on a MASS-2 instrument. The MASS-2 sensor surface was derivatized by amine coupling with a monoclonal mouse anti-human Fc antibody (REGN2567) to capture anti-HER2×HER2 ADC and parent unmodified antibodies expressed with human constant regions. […] Human hErbB2 was prepared in-house expressing a C-terminal myc-myc-hexahistidine tag (hErbB2-MMH). […] Association of hErbB2-MMH to each of the captured ADCs and monoclonal antibodies was monitored for 3 minutes. Subsequently, hErbB2-MMH dissociation was monitored for 10 minutes in HBS-EP running buffer. Anti-human Fc surface was regenerated by a brief injection of 20 mM H₃PO₄. All binding kinetic experiments were performed at 25° C.
Kinetic association (kₐ) and dissociation (Kd) rate constants were determined by fitting the real-time sensorgrams to a 1:1 binding model using Scrubber 2.0c curve fitting software. All sensorgrams were double referenced by subtracting buffer injection sensorgram signal from the corresponding analyte sensorgram, thereby removing artifacts caused by dissociation of the antibody from the capture surface. Binding dissociation equilibrium constants (KD) and dissociative half-lives (t½) were calculated from the kinetic rate constants as: […]

[2] = target: T2, human HER2 (ErbB2) expressed on the surface of cell lines and primary cells (human, UniProt P04626 23-1255); test: cell-based or functional assay
[3] = target: T2, human HER2 (ErbB2) expressed on the …; test: cell-based or functional assay; remark: listed apart in the source
[4] = target: T1, hErbB2-MMH (human HER2 ectodomain with …); test: SPR (MASS-2), antibody captured on anti-human Fc, hErbB2-MMH in solution, 25 C
Method: as §1
Kinetic association (kₐ) and dissociation (Kd) rate constants were determined by fitting the real-time sensorgrams to a 1:1 binding model using Scrubber 2.0c curve fitting software. […] Binding dissociation equilibrium constants (KD) and dissociative half-lives (t½) were calculated from the kinetic rate constants as: […]

B1: BsAb1-MCC-Maytansinoid A (bispecific antibody, human IgG4 S228P, kappa)
heavy 1: EVQLVESGGGLAQPGGSLRLSCAASGFSISDYEIHWVRQVPGKGLEWVSGIGSAGNTYYPGAVKGRFTISRENAKNSLYLQVNSLTVGDTAVYYCARVWSPLYYFGLDVWGQGTTVTVSSASTKGPSVFPLAPCSRSTSESTAALGCLVKDYFPEPVTVSWNSGALTSGVHTFPAVLQSSGLYSLSSVVTVPSSSLGTKTYTCNVDHKPSNTKVDKRVESKYGPPCPPCPAPEFLGGPSVFLFPPKPKDTLMISRTPEVTCVVVDVSQEDPEVQFNWYVDGVEVHNAKTKPREEQFNSTYRVVSVLTVLHQDWLNGKEYKCKVSNKGLPSSIEKTISKAKGQPREPQVYTLPPSQEEMTKNQVSLTCLVKGFYPSDIAVEWESNGQPENNYKTTPPVLDSDGSFFLYSRLTVDKSRWQEGNVFSCSVMHEALHNRFTQKSLSLSPGK
heavy 2: not shown
light: not shown
modifications: SMCC-DM1 (M1) conjugate, attachment residues not stated
notes: Antibody-drug conjugate of BsAb1; also called BsAb1 conjugated with M1 (SMCC-DM1)
[1]
  Antigen Bound (RU): 93.6 RU
  Kd: 0.512 nM
  t1/2: 32.7 min
[2]
  IC50 of cell killing, JIMT1 cells (Cell Titer Glow, 6 days): 7 nM
  IC50 of cell killing, MDAMB361 cells (Cell Titer Glow, 6 days): 0.05 nM
  IC50 of cell killing, MDAMB453 cells (Cell Titer Glow, 6 days): 0.1 nM
  IC50 of cell killing, SKBR3 cells (Cell Titer Glow, 6 days): 0.02 nM
  IC50 of cell killing, ZR751 cells (Cell Titer Glow, 6 days): 6 nM

B2: BsAb1-CAMPT1 (Anti-HER2 BsAb1-substituted alkyl amine-(N3)2-CAMPT-1-LP) (bispecific antibody, human IgG4 S228P, kappa)
heavy 1: EVQLVESGGGLAQPGGSLRLSCAASGFSISDYEIHWVRQVPGKGLEWVSGIGSAGNTYYPGAVKGRFTISRENAKNSLYLQVNSLTVGDTAVYYCARVWSPLYYFGLDVWGQGTTVTVSSASTKGPSVFPLAPCSRSTSESTAALGCLVKDYFPEPVTVSWNSGALTSGVHTFPAVLQSSGLYSLSSVVTVPSSSLGTKTYTCNVDHKPSNTKVDKRVESKYGPPCPPCPAPEFLGGPSVFLFPPKPKDTLMISRTPEVTCVVVDVSQEDPEVQFNWYVDGVEVHNAKTKPREEQFNSTYRVVSVLTVLHQDWLNGKEYKCKVSNKGLPSSIEKTISKAKGQPREPQVYTLPPSQEEMTKNQVSLTCLVKGFYPSDIAVEWESNGQPENNYKTTPPVLDSDGSFFLYSRLTVDKSRWQEGNVFSCSVMHEALHNRFTQKSLSLSPGK
heavy 2: not shown
light: not shown
modifications: Q295 carries a bis azido-alkyl substituted amine (bisSP1) clicked to CAMPT-1-LP
notes: Antibody-drug conjugate of BsAb1; also called BsAb1-Camp1
[1]
  Antigen Bound (RU): 117 RU
  Kd: 0.472 nM
  t1/2: 41 min

B3: BsAb1-Tubulysin 1A-LP (Anti HER2 BsAb1-PEG3-N3-Tubulysin 1A-LP) (bispecific antibody, human IgG4 S228P, kappa)
heavy 1: EVQLVESGGGLAQPGGSLRLSCAASGFSISDYEIHWVRQVPGKGLEWVSGIGSAGNTYYPGAVKGRFTISRENAKNSLYLQVNSLTVGDTAVYYCARVWSPLYYFGLDVWGQGTTVTVSSASTKGPSVFPLAPCSRSTSESTAALGCLVKDYFPEPVTVSWNSGALTSGVHTFPAVLQSSGLYSLSSVVTVPSSSLGTKTYTCNVDHKPSNTKVDKRVESKYGPPCPPCPAPEFLGGPSVFLFPPKPKDTLMISRTPEVTCVVVDVSQEDPEVQFNWYVDGVEVHNAKTKPREEQFNSTYRVVSVLTVLHQDWLNGKEYKCKVSNKGLPSSIEKTISKAKGQPREPQVYTLPPSQEEMTKNQVSLTCLVKGFYPSDIAVEWESNGQPENNYKTTPPVLDSDGSFFLYSRLTVDKSRWQEGNVFSCSVMHEALHNRFTQKSLSLSPGK
heavy 2: not shown
light: not shown
modifications: deglycosylated (PNGase F); Q295 carries azido-PEG3-amine clicked to Tubulysin 1A-LP
notes: Site-specific antibody-drug conjugate of BsAb1; also called HER2xHER2-M830
[3]
  IC50 of cell killing, MDAMB231 cells (Cell Titer Glow, 6 days): 40 nM
  IC50 of cell killing, MDAMB468 cells (Cell Titer Glow, 6 days): 50 nM
  IC50 of cell killing, T47D cells (Cell Titer Glow, 6 days): 8 nM
  IC50 of cell killing, primary breast (mammary epithelial) cells (Cell Titer Glow, 6 days): 25 nM
  IC50 of cell killing, primary lung epithelial cells (Cell Titer Glow, 6 days): > 67 nM
  IC50 of cell killing, primary myocardial cells (Cell Titer Glow, 6 days): 9 nM
  IC50 of cell killing, primary prostate epithelial cells (Cell Titer Glow, 6 days): 30 nM
[1]
  Antigen Bound (RU): 114 RU
  t1/2: 33.5 min
[2]
  IC50 of cell killing, JIMT1 cells (Cell Titer Glow, 6 days): 0.07 nM
  IC50 of cell killing, MDAMB361 cells (Cell Titer Glow, 6 days): 0.003 nM
  IC50 of cell killing, MDAMB453 cells (Cell Titer Glow, 6 days): 0.02 nM
  IC50 of cell killing, SKBR3 cells (Cell Titer Glow, 6 days): 0.004 nM
  IC50 of cell killing, ZR751 cells (Cell Titer Glow, 6 days): 0.06 nM

B4: H4H17325D (BsAb1), HER2 x HER2 bispecific antibody (bispecific antibody, human IgG4 S228P, kappa)
heavy 1: EVQLVESGGGLAQPGGSLRLSCAASGFSISDYEIHWVRQVPGKGLEWVSGIGSAGNTYYPGAVKGRFTISRENAKNSLYLQVNSLTVGDTAVYYCARVWSPLYYFGLDVWGQGTTVTVSSASTKGPSVFPLAPCSRSTSESTAALGCLVKDYFPEPVTVSWNSGALTSGVHTFPAVLQSSGLYSLSSVVTVPSSSLGTKTYTCNVDHKPSNTKVDKRVESKYGPPCPPCPAPEFLGGPSVFLFPPKPKDTLMISRTPEVTCVVVDVSQEDPEVQFNWYVDGVEVHNAKTKPREEQFNSTYRVVSVLTVLHQDWLNGKEYKCKVSNKGLPSSIEKTISKAKGQPREPQVYTLPPSQEEMTKNQVSLTCLVKGFYPSDIAVEWESNGQPENNYKTTPPVLDSDGSFFLYSRLTVDKSRWQEGNVFSCSVMHEALHNRFTQKSLSLSPGK
heavy 2: not shown
light: not shown
notes: Human IgG4 bispecific with a common light chain; also called bispecific antibody 1
[4]
  t1/2: 29 min

B5: BsAb2-Tubulysin 1A-LP (Anti HER2 BsAb2-PEG3-N3-Tubulysin 1A-LP) (bispecific antibody, human IgG4 S228P, kappa)
heavy 1: QVQLVESGGGVVQPGRSLRLSCEASGFTFSGYALHWVRQAPGKGLEWVTVISYDGSDKFYADSVKGRFTISRDNSKNTLYLQMNSLRTEDTALYYCAKDWGTYHWNYGHYNYVMDVWGQGTTVTVSSASTKGPSVFPLAPCSRSTSESTAALGCLVKDYFPEPVTVSWNSGALTSGVHTFPAVLQSSGLYSLSSVVTVPSSSLGTKTYTCNVDHKPSNTKVDKRVESKYGPPCPPCPAPEFLGGPSVFLFPPKPKDTLMISRTPEVTCVVVDVSQEDPEVQFNWYVDGVEVHNAKTKPREEQFNSTYRVVSVLTVLHQDWLNGKEYKCKVSNKGLPSSIEKTISKAKGQPREPQVYTLPPSQEEMTKNQVSLTCLVKGFYPSDIAVEWESNGQPENNYKTTPPVLDSDGSFFLYSRLTVDKSRWQEGNVFSCSVMHEALHNRFTQKSLSLSPGK
heavy 2: not shown
light: not shown
modifications: deglycosylated (PNGase F); Q295 carries azido-PEG3-amine clicked to Tubulysin 1A-LP
notes: Site-specific antibody-drug conjugate of BsAb2; also called H4H17087D-Tubulysin 1A-LP
[3]
  IC50 of cell killing, MDAMB231 cells (Cell Titer Glow, 6 days): 50 nM
  IC50 of cell killing, MDAMB468 cells (Cell Titer Glow, 6 days): 67 nM
  IC50 of cell killing, T47D cells (Cell Titer Glow, 6 days): 8 nM
  IC50 of cell killing, primary breast (mammary epithelial) cells (Cell Titer Glow, 6 days): 20 nM
  IC50 of cell killing, primary lung epithelial cells (Cell Titer Glow, 6 days): > 67 nM
  IC50 of cell killing, primary myocardial cells (Cell Titer Glow, 6 days): 30 nM
  IC50 of cell killing, primary prostate epithelial cells (Cell Titer Glow, 6 days): > 67 nM
[1]
  Antigen Bound (RU): 72.7 RU
  Kd: ≤ 0.0431 nM
  koff: ≤ 1e-05 s⁻¹
  kon: 232000 M⁻¹ s⁻¹
  t1/2: ≥ 1160 min

B6: BsAb2-CAMPT1 (bispecific antibody, human IgG4 S228P, kappa)
heavy 1: QVQLVESGGGVVQPGRSLRLSCEASGFTFSGYALHWVRQAPGKGLEWVTVISYDGSDKFYADSVKGRFTISRDNSKNTLYLQMNSLRTEDTALYYCAKDWGTYHWNYGHYNYVMDVWGQGTTVTVSSASTKGPSVFPLAPCSRSTSESTAALGCLVKDYFPEPVTVSWNSGALTSGVHTFPAVLQSSGLYSLSSVVTVPSSSLGTKTYTCNVDHKPSNTKVDKRVESKYGPPCPPCPAPEFLGGPSVFLFPPKPKDTLMISRTPEVTCVVVDVSQEDPEVQFNWYVDGVEVHNAKTKPREEQFNSTYRVVSVLTVLHQDWLNGKEYKCKVSNKGLPSSIEKTISKAKGQPREPQVYTLPPSQEEMTKNQVSLTCLVKGFYPSDIAVEWESNGQPENNYKTTPPVLDSDGSFFLYSRLTVDKSRWQEGNVFSCSVMHEALHNRFTQKSLSLSPGK
heavy 2: not shown
light: not shown
modifications: Q295 carries a bis azido-alkyl substituted amine (bisSP1) clicked to CAMPT-1-LP
notes: Antibody-drug conjugate of BsAb2; also called BsAb2-Camp1
[1]
  Antigen Bound (RU): 77 RU
  Kd: ≤ 0.0388 nM
  koff: ≤ 1e-05 s⁻¹
  kon: 258000 M⁻¹ s⁻¹
  t1/2: 1160 min

B7: BsAb2-MCC-Maytansinoid A (bispecific antibody, human IgG4 S228P, kappa)
heavy 1: QVQLVESGGGVVQPGRSLRLSCEASGFTFSGYALHWVRQAPGKGLEWVTVISYDGSDKFYADSVKGRFTISRDNSKNTLYLQMNSLRTEDTALYYCAKDWGTYHWNYGHYNYVMDVWGQGTTVTVSSASTKGPSVFPLAPCSRSTSESTAALGCLVKDYFPEPVTVSWNSGALTSGVHTFPAVLQSSGLYSLSSVVTVPSSSLGTKTYTCNVDHKPSNTKVDKRVESKYGPPCPPCPAPEFLGGPSVFLFPPKPKDTLMISRTPEVTCVVVDVSQEDPEVQFNWYVDGVEVHNAKTKPREEQFNSTYRVVSVLTVLHQDWLNGKEYKCKVSNKGLPSSIEKTISKAKGQPREPQVYTLPPSQEEMTKNQVSLTCLVKGFYPSDIAVEWESNGQPENNYKTTPPVLDSDGSFFLYSRLTVDKSRWQEGNVFSCSVMHEALHNRFTQKSLSLSPGK
heavy 2: not shown
light: not shown
modifications: SMCC-DM1 (M1) conjugate, attachment residues not stated
notes: Antibody-drug conjugate of BsAb2; also called BsAb2 conjugated with M1 (SMCC-DM1)
[1]
  Antigen Bound (RU): 82.8 RU
  Kd: 0.0469 nM
  koff: 1.02e-05 s⁻¹
  kon: 218000 M⁻¹ s⁻¹
  t1/2: 1130 min
